From IntAct's records for PubMed 14517550

B1: Caspase Dronc (Drosophila melanogaster (Fruit fly)), Q9XYF4 (parent)
chain: MQPPELEIGMPKRHREHIRKNLNILVEWTNYERLAMECVQQGILTVQMLRNTQDLNGKPFNMDEKDVRVEQHRRLLLKITQRGPTAYNLLINALRNINCLDAAVLLESVDESDSRPPFISLNERRTSRKSADIVDTPSPEASEGPCVSKLRNEPLGALTPYVGVVDGPEVKKSKKIHGGDSAILGTYKMQSRFNRGVLLMVNIMDYPDQNRRRIGAEKDSKSLIHLFQELNFTIFPYGNVNQDQFFKLLTMVTSSSYVQNTECFVMVLMTHGNSVEGKEKVEFCDGSVVDMQKIKDHFQTAKCPYLVNKPKVLMFPFCRGDEYDLGHPKNQGNLMEPVYTAQEEKWPDTQTEGIPSPSTNVPSLADTLVCYANTPGYVTHRDLDTGSWYIQKFCQVMADHAHDTDLEDILKKTSEAVGNKRTKKGSMQTGAYDNLGFNKKLYFNPGFFNE
partner: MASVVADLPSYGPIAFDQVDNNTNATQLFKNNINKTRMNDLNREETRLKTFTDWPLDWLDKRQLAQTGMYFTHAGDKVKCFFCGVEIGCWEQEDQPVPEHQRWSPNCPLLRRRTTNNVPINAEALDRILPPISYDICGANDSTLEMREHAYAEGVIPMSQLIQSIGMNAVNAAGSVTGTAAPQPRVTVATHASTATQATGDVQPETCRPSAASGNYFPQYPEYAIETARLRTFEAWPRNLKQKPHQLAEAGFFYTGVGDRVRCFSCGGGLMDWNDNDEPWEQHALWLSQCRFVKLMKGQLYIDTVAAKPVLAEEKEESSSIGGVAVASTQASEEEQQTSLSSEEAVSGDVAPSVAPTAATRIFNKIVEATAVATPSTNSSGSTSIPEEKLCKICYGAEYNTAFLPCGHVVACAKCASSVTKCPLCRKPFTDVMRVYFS

Variants of: B1
Conditions: with diap1_drome Diap1, Q24306

Row | Variant | effect of a mutation on the interaction
1 | F118E | decreasing interaction
